Measured values reported in PMC4333415, “Structural insight into operator dre-sites recognition and effector binding in the GntR/HutC transcription regulator NagR” (Nucleic Acids Research, 2015).

Tests used:
[1] = molecular target: the molecule itself; assay: crystal structure; full-length NagR co-crystallised with 10 mM GlcN-6-P or GlcNAc-6-P; sitting drop, 292 K; isomorphous crystals, space group R32:H; one homodimer in the asymmetric unit
NagR (YvoA) [2] = molecular target: T1, NagR (YvoA) (Bacillus subtilis, UniProt O34817 1-243); assay: SPR; kinetic 1:1 fit; SPR: HBS-EP pH 7.4, 25 C, biotinylated DNA on SA chip; DNA for EMSA/SEC annealed in 20 mM Tris-HCl pH 7.5, 150 mM NaCl; crystal 4WWC: 0.1 M Bis-Tris pH 6.5, 25% PEG 3500, 292 K; details: protein: recombinant; tags: pET15b template; chain copies: 2; label: 5'-biotin on strand 1; blunt
T1 sequence: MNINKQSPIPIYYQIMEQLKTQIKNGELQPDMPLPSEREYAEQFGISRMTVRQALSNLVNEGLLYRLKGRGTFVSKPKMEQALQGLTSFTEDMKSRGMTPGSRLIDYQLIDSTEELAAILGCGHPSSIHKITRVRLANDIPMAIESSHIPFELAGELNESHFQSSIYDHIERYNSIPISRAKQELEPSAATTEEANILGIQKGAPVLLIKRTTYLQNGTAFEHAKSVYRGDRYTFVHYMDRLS

NagR-DBD [3] = molecular target: T2, NagR-DBD (Bacillus subtilis, UniProt O34817 1-75); assay: SPR; KD1 of two-step model, steady state; SPR: HBS-EP pH 7.4, 25 C, biotinylated DNA on SA chip; DNA for EMSA/SEC annealed in 20 mM Tris-HCl pH 7.5, 150 mM NaCl; crystal 4WWC: 0.1 M Bis-Tris pH 6.5, 25% PEG 3500, 292 K; details: protein: recombinant; tags: N-terminal His6 with thrombin site (pET15b); chain copies: 2; label: 5'-biotin on strand 1; blunt
T2 sequence: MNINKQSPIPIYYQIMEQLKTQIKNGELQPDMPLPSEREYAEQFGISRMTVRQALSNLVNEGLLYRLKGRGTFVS

NagR-DBD [4] = molecular target: T2, NagR-DBD; assay: SEC; 3 uM DNA; SPR: HBS-EP pH 7.4, 25 C, biotinylated DNA on SA chip; DNA for EMSA/SEC annealed in 20 mM Tris-HCl pH 7.5, 150 mM NaCl; crystal 4WWC: 0.1 M Bis-Tris pH 6.5, 25% PEG 3500, 292 K; details: protein: recombinant; tags: N-terminal His6 with thrombin site (pET15b); chain copies: 2; 3' overhang 1 nt (T) on each strand; self-complementary, 2 copies
NagR (YvoA) [5] = molecular target: T1, NagR (YvoA); assay: as above; details: protein: recombinant; tags: pET15b template; chain copies: 2; 3' overhang 1 nt (T) on each strand; self-complementary, 2 copies
NagR-DBD [6] = molecular target: T2, NagR-DBD; assay: SPR; SPR: HBS-EP pH 7.4, 25 C, biotinylated DNA on SA chip; DNA for EMSA/SEC annealed in 20 mM Tris-HCl pH 7.5, 150 mM NaCl; crystal 4WWC: 0.1 M Bis-Tris pH 6.5, 25% PEG 3500, 292 K; details: protein: recombinant; tags: N-terminal His6 with thrombin site (pET15b); chain copies: 2; label: 5'-biotin on strand 1; blunt; one T:C mismatch as printed at position 3 of strand 1 (possible misprint)
NagR (YvoA) [7] = molecular target: T1, NagR (YvoA); assay: SPR; 1:1 steady state; SPR: HBS-EP pH 7.4, 25 C, biotinylated DNA on SA chip; DNA for EMSA/SEC annealed in 20 mM Tris-HCl pH 7.5, 150 mM NaCl; crystal 4WWC: 0.1 M Bis-Tris pH 6.5, 25% PEG 3500, 292 K; details: protein: recombinant, tags: pET15b template, chain copies: 2, label: 5'-biotin on strand 1, blunt
NagR-DBD [8] = molecular target: T2, NagR-DBD; assay: EMSA; 2 uM DNA; higher oligomers by bridging of fragments; SPR: HBS-EP pH 7.4, 25 C, biotinylated DNA on SA chip; DNA for EMSA/SEC annealed in 20 mM Tris-HCl pH 7.5, 150 mM NaCl; crystal 4WWC: 0.1 M Bis-Tris pH 6.5, 25% PEG 3500, 292 K; details: protein: recombinant; tags: N-terminal His6 with thrombin site (pET15b); chain copies: 2; 3' overhang 1 nt (T) on each strand; self-complementary, 2 copies
NagR (YvoA) [9] = molecular target: T1, NagR (YvoA); assay: X-ray crystallography; effector-free; 2.9 A; SPR: HBS-EP pH 7.4, 25 C, biotinylated DNA on SA chip; DNA for EMSA/SEC annealed in 20 mM Tris-HCl pH 7.5, 150 mM NaCl; crystal 4WWC: 0.1 M Bis-Tris pH 6.5, 25% PEG 3500, 292 K; details: protein: recombinant; tags: pET15b template; chain copies: 2; 3' overhang 1 nt (G) on each strand; self-complementary, 2 copies
NagR-DBD [10] = molecular target: T2, NagR-DBD; assay: SPR; 1:1 steady state; SPR: HBS-EP pH 7.4, 25 C, biotinylated DNA on SA chip; DNA for EMSA/SEC annealed in 20 mM Tris-HCl pH 7.5, 150 mM NaCl; crystal 4WWC: 0.1 M Bis-Tris pH 6.5, 25% PEG 3500, 292 K; details: protein: recombinant; tags: N-terminal His6 with thrombin site (pET15b); chain copies: 2; label: 5'-biotin on strand 1; blunt

B1: NagR (full-length, wild-type) from Bacillus subtilis (natural protein, UniProt O34817 1-243, looked up)
chain: T1 sequence
notes: NagR (formerly YvoA), GntR/HutC family transcription repressor of Bacillus subtilis, full length; The nagR gene stood in a pET15b vector; also called YvoA; full-length NagR
[1]
  stoichiometry N: 2

B2: 26mer palindromic dsDNA (dsDNA)
DNA 1: GCTCAGGTGGTCTAGACCACTAGTCT
DNA 2: AGACTAGTGGTCTAGACCACCTGAGC
NagR (YvoA) [2]
  Kd: 0.0279 ± 0.0067 nM
NagR-DBD [3]
  Kd: 14.5 ± 3.3 nM

B3: 15mer palindromic dsDNA (dsDNA)
DNA 1: GTGGTCTAGACCACT
DNA 2: GTGGTCTAGACCACT
NagR-DBD [4]
  binding result: binds
NagR (YvoA) [5]
  binding result: binds

B4: 26mer control dsDNA (random design) (dsDNA)
DNA 1: AATCATTTATGGCATAGGCAACAAGT
DNA 2: ACTTGTTGCCTATGCCATAAATGCTT
NagR-DBD [6]
  binding result: no binding
NagR (YvoA) [7]; one T:C mismatch as printed at position 3 of strand 1 (possible misprint)
  Kd: 306 ± 6.3 nM

B5: 15mer palindromic dsDNA (shifted motif) (dsDNA)
DNA 1: GACCACATGTGGTCT
DNA 2: GACCACATGTGGTCT
NagR-DBD [8]
  binding result: binds

B6: 26mer control dsDNA (derived from nagA gene) (dsDNA)
DNA 1: GCAGAGAGTCTTCTTATTAAAGACAT
DNA 2: ATGTCTTTAATAAGAAGACTCTCTGC
NagR (YvoA) [7]
  Kd: 127 ± 4.2 nM

B7: 19mer palindromic dsDNA (dsDNA)
DNA 1: CAGTGGTCTAGACCACTGG
DNA 2: CAGTGGTCTAGACCACTGG
NagR (YvoA) [9]
  binding result: binds

B8: 26mer native nagAB dsDNA (dsDNA)
DNA 1: GCTCAGCTGGTCTAGATCACTAGTCT
DNA 2: AGACTAGTGATCTAGACCAGCTGAGC
NagR (YvoA) [2]
  Kd: 0.0192 ± 0.0151 nM
NagR-DBD [10]
  Kd: 122 ± 7.6 nM
